Measured values as given in US20250188131A1 (ICOSAVAX, published 2025).
Residue numbers refer to the chain shown, from its start.

B1: RSV/B.147 (other)
chain: QNITEEFYQSTCSAVSRGYLSALRTGWYTSVITIELSNIKETKCNGTDTKVKLIKQELDKYKNAVTELQLLMQNTPAVNNRARREAPQYMNYTINTTKNLNVSISKKRKRRFLGFLLGVGSAIASGIAVCKVLHLEGEVNKIKNALQLTNKAVVSLSNGVSVLTFRVLDLKNYINNQLLPMLNRQSCRISNIETVIEFQQKNSRLLEITREFSVNAGVTTPLSTYMLTNSELLSLINDMPITNDQKKLMSSNVQIVRQQSYSIMCIIKEEVLAYVVQLPIYGVIDTPCWKLHTSPLCTTNIKEGSNICLTRTDRGWYCDNAGSVSFFPQADTCKVQSNRVFCDTMNSLTLPSEVSLCNTDIFNSKYDCKIMTSKTDISSSVITSLGAIVSCYGKTKCTASNKNRGIIKTFSNGCDYVSNKGVDTVSVGNTLYYVNKLEGKNLYVKGEPIINYYDPLVFPSDRFDASISQVNEAINQSREIIRAINIVRKIASEKGSGGSGSGSGGSEKAAKAEEAARKMEELFKKHKIVAVLRANSVEEAIEKAVAVFAGGVHLIEITFTVPDADTVIKALSVLKEKGAIIGAGTVTSVEQARKAVESGAEFIVSPHLDEEISQFAKEKGVFYMPGVMTPTELVKAMKLGHTILKLFPGEVVGPQFVKAMKGPFPNVKFVPTGGVNLDNVAEWFKAGVLAVGVGSALVKGTPDEVREKAKAFVEKIRGATELEHHHHHH
B2: RSV/B.160 (other)
chain: B1 chain with T224P, T375D, F463W, D464A
B3: RSV/B.172 (other)
chain: B1 chain with T224P, T375D, D464A
B4: RSV/B.178 (other)
chain: B1 chain with T224P, T375D, D461A, D464A
B5: RSV/B.189 (other)
chain: B1 chain with T375D, D461A, F463W, D464A
B6: RSV/B.195 (other)
chain: B1 chain with R462E, A473K
B7: RSV/B.148 (other)
chain: QNITEEFYQSTCSAVSRGYLSALRTGWYTSVITIELSNIKETKCNGTDTKVKLIKQELDKYKNAVTELQLLMQNTPAVNNRARREAPQYMNYTINTTKNLNVSISKKRKRRFLGFLLGVGSAIASGIAVCKVLHLEGEVNKIKNALQLTNKAVVSLSNGVSVLTFRVLDLKNYINNQLLPMLNRQSCRISNIETVIEFQQKNSRLLEITREFSVNAGVTTPLSPYMLTNSELLSLINDMPITNDQKKLMSSNVQIVRQQSYSIMCIIKEEVLAYVVQLPIYGVIDTPCWKLHTSPLCTTNIKEGSNICLTRTDRGWYCDNAGSVSFFPQADTCKVQSNRVFCDTMNSLTLPSEVSLCNTDIFNSKYDCKIMTSKTDISSSVITSLGAIVSCYGKTKCTASNKNRGIIKTFSNGCDYVSNKGVDTVSVGNTLYYVNKLEGKNLYVKGEPIINYYDPLVFPSDRFDASISQVNEAINQSREIIRAINIVRKIASEKGSGGSGSGSGGSEKAAKAEEAARKMEELFKKHKIVAVLRANSVEEAIEKAVAVFAGGVHLIEITFTVPDADTVIKALSVLKEKGAIIGAGTVTSVEQARKAVESGAEFIVSPHLDEEISQFAKEKGVFYMPGVMTPTELVKAMKLGHTILKLFPGEVVGPQFVKAMKGPFPNVKFVPTGGVNLDNVAEWFKAGVLAVGVGSALVKGTPDEVREKAKAFVEKIRGATELLEHHHHHH

Target: T1, I53-50B.4PosT1
T1 construct: also called second component; CompB
Experiment: in vitro assembly with I53-50B, DLS
Method: Selected constructs were incubated with a second component, I53-50B, to form nanostructures. Dynamic Light Scattering (DLS) and negative-stain electron microscopy (nsEM) confirm assembly as nanostructure. A representative electron micrograph is shown in FIG. 5 (RSV/B.195, having the DS-Cav).
Assembly: Molar concentrations for RSV/B or RSV/A trimers fused to I53-50AΔcys and I53-50B (second component, using the sequence of I53-50B.4PosT1, SEQ ID NO:46) were determined using UV-Vis spectroscopy. Absorbance values at 280 nm were collected and divided by calculated molar extinction coefficients (ExPASy). The assembly reaction to produce RSVB antigen-bearing nanostructures was performed in vitro with the addition of components as follows: RSV F trimers fused to I53-50AΔcys were added to PCR tubes in 1.5× molar excess of I53-50B, then assembly buffer (20 mM Tris pH 7.4, 250 mM NaCl, 4% sucrose) was added to the sample in PCR tubes, and finally I53-50B was added to the reaction to bring the assemblies to a final concentration of 7.5 μM and a final volume of 47.5 μL. The reaction was incubated at ambient temperature for ˜30 minutes with gentle rocking prior to subsequent measurement by dynamic light scattering (DLS). All constructs were assembly competent under the conditions tested. Prior to nsEM analysis or immunogenicity studies, assembled nanostructures were further purified by size exclusion chromatography over a Superose 6 Increase 10/300 GL column into 20 mM Tris pH 7.4, 250 mM NaCl, 4% sucrose.

Row | Binder | binding result
1 | B1 | binds
2 | B2 | binds
3 | B3 | binds
4 | B4 | binds
5 | B5 | binds
6 | B6 | binds
7 | B7 | binds
